Measured values reported in the nanobody polyreactivity screen of Harvey et al. (2022).

Test: yeast display, Sf9 membrane polyspecificity reagent, FACS + sequencing; frameworks hold sequencing errors
Outline: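 Galactose-induced (36–48 hours) yeast carrying a synthetic nanobody display library were exposed to 10% biotinylated, detergent-solubilized Sf9 membrane reagent at 4 °C for 1 hour. FACS followed streptavidin microbead enrichment, using low and high (top ~1%) gates for expression (anti-HA) and reagent binding (streptavidin). Colony PCR, MiSeq 2 × 250 sequencing and CDR-length filtering followed. Labels for polyreactivity reflect the gate of origin.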

| Sequence | polyreactivity (PSR sort gate) |
| --- | --- |
| QVQLVESGGGLVQAGGRLRLSCAASGNTFGPYDMGWYRQAPGKERELVAGITSGGSTYYADSVKGRFTISRDNAKITVYLQMNSLKPEDTAVYYCAADYFLWVYWYDYWGQGTQVTVSS | high polyreactivity |
| QVQLVESGGGLVQAGGRLRLSCAASGNTFYLNAIGWYRQAPGKERELVAAITIRGDSTYYADSVKGRFTISRDNAKNTVYLQMISLKPEDTAVYSCAAPWAWNTGYRVYYGGQGTQVTVSS | high polyreactivity |
| QVQLVESGGGLVQAGGRLRLSCAASGNTLRYYAMGWYRQAPGKERELVAAISESGGRTYYADSVKGRFTISRDNAKNTVYLQMNSLKPEDTAVYYCAASRWGGTWWYGYNYWGQGTQVTVSS | high polyreactivity |
| QVQLVESGGGLVQAGGRLRLSCAASGRIFDTYAMGWYRQAPGKERELVASINWSAGSTYYADSVKGRFTISRDNAMNTVYLQMNSLKPEDTAVYYCATYSSYYWQSSYVYWEFDYWGQGTQVTVSS | high polyreactivity |
| QVQLVESGGGLVQAGGRLRLSCAASGRIFGVNAMGWYRQAPGKERELVAVISSGGSTYYADSVKGRFTISRDNAKNTVYLQMNSLKPEDTAVYYCNAVVGRWFPYNLSDYWGQGTQVTVSS | low polyreactivity |
| QVQLVESGGGLVQAGGRLRLSCAASGRIFKDNAMGWYRQAPGKERELVAAISSGASTSYADSVKGRFTISRDNAKNTVYLQMNSLKPEDTAVYYCNRGGDLYYPGWLFDYWGQGTQVTVSS | low polyreactivity |
| QVQLVESGGGLVQAGGRLRLSCAASGRIFKTYAMGWYRQAPGKERELVAAISIRGGSTYYAVSVKGRFTISRDNAKNTVYLQMNSLKPEDTAVYYCNALYGRQIVDYDYWGQGTQVTVSS | high polyreactivity |
| QVQLVESGGGLVQAGGRLRLSCAASGRIFNKYVMGWYRQAPGKERELVAAISGRGGSTYYADSVKGRFTISRDYEKNTVYLQMNSLKPEDSAVYYCAAEYQGRRMYYWGQGTQVTVSS | high polyreactivity |
| QVQLVESGGGLVQAGGRLRLSCAASGRIFPKNTMGWNRPAPGKERELVAAINWNGGRTYYADSVKGRYTISRDNAKTTVYLQMNSLKPEDTAVYYCAKDGYWVFDYWGQGTQVTVSS | low polyreactivity |
| QVQLVESGGGLVQAGGRLRLSCAASGRIFTYNAMGWYRQAPGKEREFVAAISSGGSTTYADSVKGRFTISRDNAKNTVYLQMNSLKPEDTAVYYCAAGGCRFAIIEYEYWGQGTQVTVSS | low polyreactivity |
| QVQLVESGGGLVQAGGRLRLSCAASGRIFVYYAMGWYRQAPGKERELVAAINAGGSTNYADSVKGRFTISRDNAKNTVYLQMNSLKPEDTAVYYCATDRYWWSGFDYWGQGTQVTVSS | high polyreactivity |
| QVQLVESGGGLVQAGGRLRLSCAASGRIFYHNAMGWYRQAPGKERELVAAITWSGVSTYYADSVKGRFTISRDNAKNTVYLQMNSLKPEDTAVYYCAKRGRWDWDFNYWGQGTQVTVSS | high polyreactivity |
| QVQLVESGGGLVQAGGRLRLSCAASGRTFANYAMGWYRQAPGKERELVAAITGSGSTNYADSVKGRFTISRDNAKNTVYLQMNSLKPEDTAVYYCAAAYKPYRCLYYPNSIDFGYWGQGTQVTVSS | high polyreactivity |
| QVQLVESGGGLVQAGGRLRLSCAASGRTFATNAMGWYRQAPGKERELVADISGGGSTYYADSVKGRFTISRDNAKNTVYLQMNSLKPEDTAVYYCAARDYHWFQWYDYWGQGTQVTVSS | low polyreactivity |
| QVQLVESGGGLVQAGGRLRLSCAASGRTFFQYAMGWYRQAPGKERELVAAIRCSDSTYYADSVKGRFTISRDNAKNTVYLQMNSLKPEDTAVYYCAVRAYREFLPIVYKWWWERDHWGQGTQVTVSS | low polyreactivity |
| QVQLVESGGGLVQAGGRLRLSCAASGRTFGSYAMGWYRQAPGKERELVAAISWSDGSTYYADSVKGRFTISRDNAKNTVYLQMNSLKPEDTAVYYCHWAKWYRYGGYRSRFDYWGQGTQVTVSS | low polyreactivity |

| Sequence | polyreactivity (PSR sort gate) |
| --- | --- |
| QVQLVESGGGLVQAGGRLRLSCAASGRTFGTYAKGWSRQATGKERELVAAIRSNAGSTYYADSVKGRFTISRDNAKITVYLQMNSLKPEDTAVYYCAKSYRSSRRYNYWGQGTQVNVSS | high polyreactivity |
| QVQLVESGGGLVQAGGRLRLSCAASGRTFGYYTMGWYRQAPGKERELVATIRWSGGSTYADSVKGRFTISRDNANNTVYLQMNSLKPEDTAVYYCARRLFSWGAPFGYWGQGTQVTVSS | high polyreactivity |
| QVQLVESGGGLVQAGGRLRLSCAASGRTFRRYTMGWYRQAPGKERELVAAISRNGGSTYYADSVKGRFTISRDNAKNTVYLQMNSLKPEDTAVYYCAALRYAYIADYDYWGQGTQVTVSS | high polyreactivity |
| QVQLVESGGGLVQAGGRLRLSCAASGRTFTYNAMGWYRQAPGKERELFAAISNTGSTYYADSLKGRFTISRDNAKNTVYLQMNSLKPEDTAVYYCAADRAEFRQDDDPGESNYWGQGTQVTVSS | low polyreactivity |
| QVQLVESGGGLVQAGGRLRLSCAASGRTFYYNAMGWYRQAPGKERELVAAISSSGGRTYYADSVKGRFTISRDNAKNTVYLQMNSLKPEDTAVYYCAALTNARGFDYWGQGTQVTVSS | high polyreactivity |
| QVQLVESGGGLVQAGGRLRLSCAASGSIFFDYAMGWYRQAPGKERELVAAINSGGTTNYADSVKGRFTISRDNAKNTVYLQMKQPETGRYRGLLLQRLPGYIRWYRWYDYWGQGTQVTVSS | low polyreactivity |
| QVQLVESGGGLVQAGGRLRLSCAASGSIFFGNVIGWYRQAPGKEREWVAAINTDGRTYYADSVKGRFTISRDNAKNTVYLQMNSLKPEDTAVYYCAKAVWWSLPAQKSYLYYYWGQGTQVTVSS | high polyreactivity |
| QVQLVESGGGLVQAGGRLRLSCAASGSIFGGNDMGWYRQPPGKERELVAAITSSGGSTYYADSVKGRFTISRDNAKNTVYLQMYSLKPEDTAVYYCNADYYGPYRDYGYWGQGTQVTVSS | low polyreactivity |
| QVQLVESGGGLVQAGGRLRLSCAASGSIFINNTMGWYRQAPGKERELVAAISITGGSTYYADSVKGRFTISRDNAKNTVYLQMNSLKPEDTAVYYCAADPLQLYDYNYWGQCTQVTVSS | low polyreactivity |
| QVQLVESGGGLVQAGGRLRLSCAASGSIFNSYDMGWYRQAPGKERELVAAINSGGSTYYADSVKGRFTISRDNAKNTDYFQMNSLKPEDTAVYYCAARVVIRYPYTKGYYYWGQGTQVTVSS | high polyreactivity |
| QVQLVESGGGLVQAGGRLRLSCAASGSIFRVYAMGWYRQAPGKERELVARISRGGRTNYADSVKGRFTISRDNAKNTVYLQMNSLKPEDTAVYYCAADVVSLESYSYQSLGYDYWGQGTQVTVSS | high polyreactivity |
| QVQLVESGGGLVQAGGRLRLSCAASGSIFSSYAMGWYRQAPGKERELVAAITNSGVSTYYADSVKGRFTISRDNAKYTVYLQMNSLKPEVTASITALKTVVRLPTVYTPLLNWYYYWGQGTQVTVSS | low polyreactivity |
| QVQLVESGGGLVQAGGRLRLSCAASGSILVFYARGWYRQAPGKERELVAAITSGASTNYADSVKGRFTISRDNAKNTVYLQMNSLKPEDTAVYYCAAGFQTRTPLNEFDYWGQGTQVTVSS | low polyreactivity |
| QVQLVESGGGLVQAGGRLRLSCAASGSISQTNAMGWYRKAPGKERELVAAISGSGGSTYADSVKGRFTISRDNAKNTVYLQMNSLKPEDTAVYYCARDRYYTREWYWYRHDHWGQGTQVTVSS | low polyreactivity |
| QVQLVESGGGLVQAGGRLRLSCAASGSNFTYYAMGWYRKAPGKEREFVAAISRRGGSTYYADSVKGRFTISRDNAKNTVYLQMNSLKPEDTAVYECNARYTGSSLYYWGQGTQLTVSS | high polyreactivity |
